The conditions of this data set: Escherichia coli (strain K12); pH 7; 25 °C; Urea; CD; Sodium phosphate 5 mM; reversible: yes; whole UniProt chain shown.

B1: Chemotaxis protein CheY wild type, P0AE67 (protein)
chain: MADKELKFLVVDDFSTMRRIVRNLLKELGFNNVEEAEDGVDALNKLQAGGYGFVISDWNMPNMDGLELLKTIRADGAMSALPVLMVTAEAKKENIIAAAQAGASGYVVKPFTAATLEEKLNKIFEKLGM
With B1, the denaturant m value turned out to be 1.6 kcal/mol/M, the “denaturant midpoint (higher = more stable)” value is 3.25 M and the unfolding free energy amounted to 5.2 kcal/mol.
